Laboratory results: the supplement of paper PMC10065799, “High-throughput profiling of sequence recognition by tyrosine kinases and SH2 domains using bacterial peptide display” (eLife, 2023)

Columns and labels:
SHP2-C SH2 = assay: SH2 binding enrichment of the phosphorylated peptide, bacterial display (enrichment ratio); higher = better substrate or ligand; peptides without Tyr show the background
c-Src SH2 = assay: as above
Grb2 SH2 = Grb2 SH2 (UniProt P62993); assay: as above
Fyn = Fyn (UniProt P06241); assay: phosphorylation enrichment, bacterial display (enrichment ratio); higher = better substrate or ligand; peptides without Tyr show the background
Fes = Fes (UniProt P07332); assay: as above
AncSZ = assay: as above
FGFR1 = FGFR1 (UniProt P11362); assay: as above
EPHB2 = EPHB2 (UniProt P29323); assay: as above
MERTK = MERTK (UniProt Q12866); assay: as above
FGFR3 = FGFR3 (UniProt P22607); assay: as above
Fer (mouse) = assay: as above
Jak2 = Jak2 (UniProt O60674); assay: as above
c-Abl (mouse) = assay: as above
EPHB1 = EPHB1 (UniProt P54762); assay: as above
Hck = Hck (UniProt P08631); assay: as above
c-Src = assay: as above
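Throughout, for SH2 binding enrichment of the phosphorylated peptide, bacterial display: peptide library displayed on the E. coli surface as eCPX fusions, selected cells deep-sequenced, score is each peptide's frequency after selection divided by its frequency in the input.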
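Throughout, for phosphorylation enrichment, bacterial display: 11-residue human phosphosite peptides and single-mutation variants displayed on the E. coli surface, counted by deep sequencing, each peptide's frequency after selection divided by its frequency in the unselected input library; frequency after pTyr selection over input frequency; kinase dosed for 20-30% of maximal phosphorylation in three min.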

FGFR1, sequence (P11362 whole entry, looked up): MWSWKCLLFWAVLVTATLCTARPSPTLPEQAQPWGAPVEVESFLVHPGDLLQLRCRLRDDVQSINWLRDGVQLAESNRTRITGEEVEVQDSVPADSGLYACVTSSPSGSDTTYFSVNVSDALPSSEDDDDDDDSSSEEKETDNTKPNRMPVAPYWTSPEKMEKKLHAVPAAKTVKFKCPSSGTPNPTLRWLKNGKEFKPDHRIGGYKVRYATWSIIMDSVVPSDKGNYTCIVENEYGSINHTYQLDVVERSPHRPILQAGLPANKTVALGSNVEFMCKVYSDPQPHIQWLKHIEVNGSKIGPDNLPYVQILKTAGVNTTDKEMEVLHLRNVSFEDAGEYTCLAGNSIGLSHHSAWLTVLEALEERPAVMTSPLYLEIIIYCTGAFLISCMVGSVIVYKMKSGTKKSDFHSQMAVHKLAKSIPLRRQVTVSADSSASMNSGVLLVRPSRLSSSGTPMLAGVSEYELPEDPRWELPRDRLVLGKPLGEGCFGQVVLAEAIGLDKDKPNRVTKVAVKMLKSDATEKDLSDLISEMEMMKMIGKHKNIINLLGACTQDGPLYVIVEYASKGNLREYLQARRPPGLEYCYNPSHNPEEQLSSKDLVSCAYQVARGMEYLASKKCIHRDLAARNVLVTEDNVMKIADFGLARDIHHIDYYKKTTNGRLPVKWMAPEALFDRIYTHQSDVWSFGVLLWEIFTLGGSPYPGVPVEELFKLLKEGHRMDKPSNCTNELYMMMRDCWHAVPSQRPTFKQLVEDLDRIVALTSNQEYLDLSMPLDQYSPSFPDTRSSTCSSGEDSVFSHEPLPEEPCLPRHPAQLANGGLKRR
Fyn, sequence (P06241 whole entry, looked up): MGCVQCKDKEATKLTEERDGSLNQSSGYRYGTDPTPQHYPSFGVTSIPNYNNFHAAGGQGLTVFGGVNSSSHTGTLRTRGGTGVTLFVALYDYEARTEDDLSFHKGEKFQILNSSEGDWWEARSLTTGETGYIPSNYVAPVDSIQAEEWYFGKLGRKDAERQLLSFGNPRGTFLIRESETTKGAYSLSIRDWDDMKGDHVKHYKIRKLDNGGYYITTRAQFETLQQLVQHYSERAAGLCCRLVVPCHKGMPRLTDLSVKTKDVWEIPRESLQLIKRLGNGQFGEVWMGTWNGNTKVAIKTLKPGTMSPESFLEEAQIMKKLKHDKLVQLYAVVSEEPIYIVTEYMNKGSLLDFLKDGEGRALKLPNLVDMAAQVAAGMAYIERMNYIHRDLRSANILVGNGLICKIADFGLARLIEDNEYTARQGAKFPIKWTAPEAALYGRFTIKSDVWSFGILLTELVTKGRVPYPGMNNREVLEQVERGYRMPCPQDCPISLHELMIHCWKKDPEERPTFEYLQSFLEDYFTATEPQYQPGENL
Jak2, sequence (O60674 whole entry, looked up): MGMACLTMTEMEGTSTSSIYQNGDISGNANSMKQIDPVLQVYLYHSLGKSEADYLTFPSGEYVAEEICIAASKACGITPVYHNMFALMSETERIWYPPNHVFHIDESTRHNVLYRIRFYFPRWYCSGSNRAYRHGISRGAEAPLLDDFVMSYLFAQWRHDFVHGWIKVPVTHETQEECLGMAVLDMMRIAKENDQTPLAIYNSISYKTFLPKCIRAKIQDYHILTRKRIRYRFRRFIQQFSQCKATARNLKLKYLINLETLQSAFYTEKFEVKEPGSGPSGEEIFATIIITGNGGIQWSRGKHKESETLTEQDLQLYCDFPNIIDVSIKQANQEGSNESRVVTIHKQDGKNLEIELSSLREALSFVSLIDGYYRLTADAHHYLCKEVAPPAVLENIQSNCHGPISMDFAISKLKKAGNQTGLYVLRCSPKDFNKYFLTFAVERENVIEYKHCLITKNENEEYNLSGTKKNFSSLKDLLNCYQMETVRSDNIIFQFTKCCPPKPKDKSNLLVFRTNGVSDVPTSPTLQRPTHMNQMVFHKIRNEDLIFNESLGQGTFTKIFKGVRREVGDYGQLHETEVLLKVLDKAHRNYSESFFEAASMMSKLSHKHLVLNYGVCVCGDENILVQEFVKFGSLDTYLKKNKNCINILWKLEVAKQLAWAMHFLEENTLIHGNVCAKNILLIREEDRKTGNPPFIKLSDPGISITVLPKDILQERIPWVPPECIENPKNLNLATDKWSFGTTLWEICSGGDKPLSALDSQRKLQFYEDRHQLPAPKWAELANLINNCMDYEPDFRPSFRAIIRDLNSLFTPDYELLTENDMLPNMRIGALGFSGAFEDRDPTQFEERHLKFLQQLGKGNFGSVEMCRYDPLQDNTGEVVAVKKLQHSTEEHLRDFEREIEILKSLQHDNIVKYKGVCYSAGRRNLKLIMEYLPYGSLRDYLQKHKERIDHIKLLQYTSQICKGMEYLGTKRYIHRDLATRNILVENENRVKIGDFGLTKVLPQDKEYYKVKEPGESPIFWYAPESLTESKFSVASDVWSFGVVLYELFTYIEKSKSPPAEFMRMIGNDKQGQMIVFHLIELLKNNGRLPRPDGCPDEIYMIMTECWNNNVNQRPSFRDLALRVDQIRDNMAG
MERTK, sequence (Q12866 whole entry, looked up): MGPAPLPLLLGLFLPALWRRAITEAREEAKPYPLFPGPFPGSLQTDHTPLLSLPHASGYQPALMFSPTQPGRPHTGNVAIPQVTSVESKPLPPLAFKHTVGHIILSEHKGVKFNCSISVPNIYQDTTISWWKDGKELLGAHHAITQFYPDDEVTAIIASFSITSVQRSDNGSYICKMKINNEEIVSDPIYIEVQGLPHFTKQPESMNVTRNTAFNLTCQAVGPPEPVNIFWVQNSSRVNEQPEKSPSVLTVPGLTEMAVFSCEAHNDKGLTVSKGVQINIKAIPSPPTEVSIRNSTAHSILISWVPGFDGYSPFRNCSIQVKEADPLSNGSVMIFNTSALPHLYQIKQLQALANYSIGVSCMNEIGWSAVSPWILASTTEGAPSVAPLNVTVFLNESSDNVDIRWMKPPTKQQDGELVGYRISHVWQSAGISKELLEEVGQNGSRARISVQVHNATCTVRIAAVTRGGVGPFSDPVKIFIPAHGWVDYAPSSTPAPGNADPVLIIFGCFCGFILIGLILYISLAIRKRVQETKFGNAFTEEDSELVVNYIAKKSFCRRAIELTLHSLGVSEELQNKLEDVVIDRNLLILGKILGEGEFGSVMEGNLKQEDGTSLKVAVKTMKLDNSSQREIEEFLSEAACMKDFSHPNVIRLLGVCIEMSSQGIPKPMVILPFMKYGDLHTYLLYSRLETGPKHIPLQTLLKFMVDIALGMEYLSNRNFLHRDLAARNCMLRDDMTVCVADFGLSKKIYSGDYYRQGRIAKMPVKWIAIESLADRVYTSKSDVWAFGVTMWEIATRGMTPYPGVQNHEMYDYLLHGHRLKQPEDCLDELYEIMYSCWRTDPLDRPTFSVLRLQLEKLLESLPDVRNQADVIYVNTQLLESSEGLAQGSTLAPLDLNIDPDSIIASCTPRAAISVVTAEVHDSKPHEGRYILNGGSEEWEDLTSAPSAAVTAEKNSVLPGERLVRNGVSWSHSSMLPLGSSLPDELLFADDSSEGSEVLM
EPHB2, sequence (P29323 whole entry, looked up): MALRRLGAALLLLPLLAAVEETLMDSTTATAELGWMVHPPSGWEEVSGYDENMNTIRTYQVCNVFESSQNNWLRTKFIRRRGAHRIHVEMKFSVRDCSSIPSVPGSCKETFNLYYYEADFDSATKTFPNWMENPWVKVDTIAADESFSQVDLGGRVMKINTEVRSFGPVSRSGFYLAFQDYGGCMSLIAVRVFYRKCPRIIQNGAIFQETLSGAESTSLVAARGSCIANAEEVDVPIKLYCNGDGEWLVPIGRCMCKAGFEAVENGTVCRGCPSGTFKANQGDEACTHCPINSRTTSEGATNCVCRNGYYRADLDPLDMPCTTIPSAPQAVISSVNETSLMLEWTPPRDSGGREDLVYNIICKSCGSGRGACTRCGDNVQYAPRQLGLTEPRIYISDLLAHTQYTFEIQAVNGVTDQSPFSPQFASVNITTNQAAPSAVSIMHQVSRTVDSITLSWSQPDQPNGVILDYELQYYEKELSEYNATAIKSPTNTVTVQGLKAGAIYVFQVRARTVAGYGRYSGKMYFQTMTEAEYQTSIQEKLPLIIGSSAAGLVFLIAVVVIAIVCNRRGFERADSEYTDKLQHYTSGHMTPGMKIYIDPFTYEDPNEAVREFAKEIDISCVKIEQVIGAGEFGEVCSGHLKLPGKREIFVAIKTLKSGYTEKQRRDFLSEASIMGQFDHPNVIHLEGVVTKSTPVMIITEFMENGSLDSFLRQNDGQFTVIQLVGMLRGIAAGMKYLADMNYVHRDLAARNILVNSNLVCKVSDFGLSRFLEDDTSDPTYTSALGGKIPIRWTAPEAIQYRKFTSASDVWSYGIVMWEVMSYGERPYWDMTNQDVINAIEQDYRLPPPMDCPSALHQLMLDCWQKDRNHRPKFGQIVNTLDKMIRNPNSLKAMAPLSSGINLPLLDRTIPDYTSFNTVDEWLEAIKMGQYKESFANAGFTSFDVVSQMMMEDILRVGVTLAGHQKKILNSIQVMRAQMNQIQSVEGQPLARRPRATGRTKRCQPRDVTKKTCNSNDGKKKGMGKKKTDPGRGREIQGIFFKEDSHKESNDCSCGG
Hck, sequence (P08631 whole entry, looked up): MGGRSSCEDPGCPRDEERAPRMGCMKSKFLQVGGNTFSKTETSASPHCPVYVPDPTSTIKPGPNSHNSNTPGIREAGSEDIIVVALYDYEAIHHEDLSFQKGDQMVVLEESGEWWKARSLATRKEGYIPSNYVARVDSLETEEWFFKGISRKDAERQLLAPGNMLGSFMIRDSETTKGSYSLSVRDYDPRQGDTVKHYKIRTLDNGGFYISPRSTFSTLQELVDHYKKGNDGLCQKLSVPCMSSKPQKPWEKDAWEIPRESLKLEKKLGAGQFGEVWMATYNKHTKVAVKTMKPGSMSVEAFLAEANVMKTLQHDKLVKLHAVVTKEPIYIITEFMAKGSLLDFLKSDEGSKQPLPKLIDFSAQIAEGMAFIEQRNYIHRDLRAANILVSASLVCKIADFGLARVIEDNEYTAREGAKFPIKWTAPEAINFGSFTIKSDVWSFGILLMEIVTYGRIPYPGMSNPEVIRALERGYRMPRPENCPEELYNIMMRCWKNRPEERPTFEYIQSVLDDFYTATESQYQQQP

Sequence | SH2 binding enrichment (SHP2-C SH2) | SH2 binding enrichment (c-Src SH2) | SH2 binding enrichment (Grb2 SH2) | phosphorylation enrichment (Fyn) | phosphorylation enrichment (Fes) | phosphorylation enrichment (AncSZ) | phosphorylation enrichment (FGFR1) | phosphorylation enrichment (EPHB2) | phosphorylation enrichment (MERTK) | phosphorylation enrichment (FGFR3) | phosphorylation enrichment (Fer (mouse)) | phosphorylation enrichment (Jak2) | phosphorylation enrichment (c-Abl (mouse)) | phosphorylation enrichment (EPHB1) | phosphorylation enrichment (Hck) | phosphorylation enrichment (c-Src)
GRSTYYWPRPR [GAGE12J_Y10] | 0.386 | 0.419 | 0.668 | 0.524 | 0.444 | 0.697 | 0.537 | 0.507 | 0.748 | 0.481 | 0.504 | 0.543 | 0.93 | 0.474 | 0.615 | 0.665
AELVPYFMEHH [PTPN11_Y80_Q79P_YF] | 0.787 | 0.607 | 0.876 | 0.636 | 1.15 | 0.913 | 0.531 | 0.602 | 0.463 | 0.614 | 0.515 | 1.02 | 0.741 | 0.605 | 0.562 | 0.883
EDGRLYAVKCS [PKMYT1_Y136_R140C] | 0.714 | 0.473 | 0.795 | 0.589 | 1.12 | 0.972 | 0.513 | 0.609 | 0.549 | 0.66 | 0.529 | 0.861 | 0.82 | 0.594 | 0.792 | 0.63
TDLAFYLVRKG [ASL_Y376_YF] | 0.662 | 0.693 | 1.07 | 0.545 | 1.27 | 1.4 | 0.497 | 0.725 | 0.506 | 0.988 | 0.541 | 0.946 | 0.611 | 0.65 | 0.67 | 0.361
EVKEAYMGSVL [ACAT1_Y90_N93S] | 0.671 | 0.452 | 0.883 | 0.489 | 0.995 | 0.841 | 0.407 | 0.532 | 0.463 | 0.527 | 0.398 | 0.83 | 0.744 | 0.485 | 0.447 | 0.592
KMTGRYEMFAR [UPB1_Y362_YF] | 1.07 | 1.75 | 1.36 | 0.386 | 0.815 | 0.808 | 0.499 | 0.556 | 0.633 | 0.53 | 0.438 | 0.586 | 0.571 | 0.496 | 0.505 | 0.451
LMLVLYGRIFL [HTR1A_Y215_R220L] | 0.776 | 0.556 | 1.16 | 0.433 | 1.93 | 1.11 | 0.851 | 0.692 | 0.651 | 0.968 | 0.745 | 1.28 | 0.996 | 1.11 | 0.654 | 0.778
RWQQLYDTLNA [EIF3M_Y351_Q346R] | 0.695 | 0.338 | 0.827 | 5.67 | 1.45 | 1.32 | 0.574 | 2.02 | 6.56 | 0.848 | 3.35 | 2.43 | 0.788 | 1.95 | 7.68 | 3.71
GFFDLYGGEKF [PTPN11_Y66_D61G_YF] | 0.832 | 0.564 | 0.995 | 2.13 | 1.05 | 0.906 | 0.484 | 0.858 | 0.504 | 0.575 | 0.72 | 0.914 | 0.767 | 0.603 | 3.85 | 2.7
QPSALYEDRYL [ASS1_Y83_S79P] | 0.461 | 0.984 | 0.918 | 0.946 | 1.06 | 0.93 | 0.529 | 1.16 | 0.78 | 0.625 | 6.74 | 1.04 | 0.681 | 1.67 | 3.92 | 0.942
PSAELYSYALP [PDGFRB_Y716_N718Y] | 0.641 | 3.46 | 0.966 | 6.1 | 1.92 | 3.71 | 10.6 | 21.2 | 16.8 | 10 | 25.8 | 0.947 | 1.55 | 18 | 8.81 | 5.38
TFSPPYYHRNC [HGD_Y333_R330S] | 0.859 | 0.703 | 1.06 | 0.5 | 0.813 | 0.822 | 0.565 | 0.52 | 0.526 | 0.654 | 0.497 | 0.83 | 0.612 | 0.45 | 0.531 | 0.535
IYHLSYLHNCE [PDE6B_Y227] | 1 | 0.792 | 0.959 | 2.63 | 1.54 | 1.46 | 1.95 | 0.764 | 3.92 | 1.74 | 1.28 | 1.26 | 3.41 | 0.778 | 1.75 | 2.56
YQQLFYLLQIN [IQGAP2_Y890_T894I] | 1.28 | 0.91 | 1.31 | 0.625 | 1.81 | 1.57 | 2.23 | 0.829 | 1.31 | 2.15 | 0.751 | 1.67 | 1.3 | 1.21 | 0.911 | 1
VFLGAYDHFLP [SLC22A5_Y486_R488H_YF] | 1 | 1.46 | 0.833 | 3.08 | 0.955 | 1.36 | 0.611 | 3.32 | 6.29 | 0.811 | 4.81 | 0.726 | 1.06 | 1.8 | 2.73 | 3.29
GDEVEYMSVSF [GCLC_Y53_L55S] | 0.623 | 0.376 | 0.736 | 1.41 | 1.16 | 1.56 | 1.01 | 0.832 | 0.418 | 1.17 | 0.972 | 1.11 | 0.846 | 0.561 | 1.26 | 1.49
QKDTFYGLRSL [IGSF10_Y126] | 0.488 | 0.439 | 0.952 | 0.498 | 1.12 | 0.73 | 0.562 | 0.927 | 0.552 | 0.562 | 0.474 | 1 | 0.837 | 0.488 | 0.598 | 0.807
CTTIHYNYICN [TP53_Y234_M237I] | 4.45 | 9.21 | 1.75 | 0.457 | 0.91 | 0.864 | 0.587 | 0.505 | 0.518 | 0.654 | 0.654 | 0.682 | 0.519 | 0.513 | 0.521 | 0.532
TVHPGYGFLSE [PCCA_Y143_A138T] | 0.962 | 0.433 | 0.941 | 0.384 | 0.747 | 0.717 | 0.393 | 0.467 | 0.396 | 0.478 | 0.425 | 0.676 | 0.529 | 0.455 | 0.488 | 0.566
PIFEGYGLPHA [ACTA1_Y171_A172G_YF] | 0.581 | 0.516 | 0.612 | 0.701 | 0.866 | 0.806 | 0.628 | 0.5 | 0.641 | 0.451 | 0.744 | 0.836 | 0.872 | 0.469 | 0.642 | 0.547
SSMIDYNPLEK [MYOC_Y479] | 0.641 | 0.373 | 0.744 | 0.596 | 0.945 | 0.971 | 0.475 | 0.533 | 0.463 | 0.595 | 0.44 | 1.07 | 0.663 | 0.517 | 0.512 | 0.689
AIIEEYLHLSD [EIF4G1_Y1253_N1257S] | 0.752 | 0.561 | 0.749 | 0.635 | 1.4 | 1.24 | 0.592 | 0.698 | 0.515 | 0.838 | 0.6 | 1.19 | 0.885 | 0.714 | 0.655 | 0.458
AASTDYYKRGD [PDHA1_Y242] | 0.593 | 0.4 | 0.824 | 0.597 | 0.811 | 0.83 | 0.592 | 0.45 | 0.511 | 0.586 | 0.515 | 0.811 | 0.615 | 0.51 | 0.568 | 0.523
EPVSDYINANV [PTPN11_Y304_I309V] | 0.676 | 0.466 | 1.14 | 0.393 | 0.855 | 1.03 | 0.541 | 0.486 | 0.4 | 0.585 | 0.384 | 0.754 | 0.567 | 0.42 | 0.428 | 0.37
LIDTVYSSSSA [OR4C12_Y71] | 0.734 | 0.551 | 0.603 | 3.74 | 1.57 | 1.06 | 0.979 | 0.782 | 0.641 | 1.32 | 0.96 | 1.19 | 1.03 | 0.757 | 3.42 | 3.25
KPPPTYESEEE [BRD4_Y599] | 0.719 | 0.728 | 0.977 | 0.664 | 1.88 | 1.65 | 0.618 | 0.711 | 0.552 | 0.775 | 0.753 | 1.39 | 1.18 | 0.653 | 0.641 | 0.767
FFRDGHMPRQF [GSS_Y270_Y270H_YF] | 0.611 | 0.494 | 0.741 | 0.374 | 0.612 | 0.472 | 0.392 | 0.363 | 0.324 | 0.487 | 0.355 | 0.491 | 0.505 | 0.367 | 0.357 | 0.365
QRIHNYFEHRF [HCN4_Y554_D553N_YF] | 1.22 | 1.31 | 1.16 | 0.441 | 0.692 | 0.647 | 0.719 | 0.443 | 0.567 | 0.374 | 0.343 | 0.34 | 0.34 | 0.543 | 0.409 | 0.493
TIQSMYGCDVG [HLA-B_Y123_L119I] | 1.01 | 0.581 | 0.909 | 0.427 | 1.04 | 0.886 | 0.579 | 0.48 | 0.559 | 0.602 | 0.48 | 0.794 | 0.68 | 0.502 | 0.502 | 0.517
